Experimental data taken from paper PMC7511310, “Ancestral sequence reconstruction produces thermally stable enzymes with mesophilic enzyme-like catalytic properties” (Scientific Reports, 2020).

Assays:
Assay in all cases: A340 NADH formation, steady state, Michaelis-Menten fit
[1] = substrate: NC(=O)c1ccc[n+]([C@@H]2O[C@H](COP(=O)(O)OP(=O)(O)OC[C@H]3O[C@@H](n4cnc5c(N)ncnc54)[C@H](O)[C@@H]3O)[C@@H](O)[C@H]2O)c1; format: biochemical, Bacillus subtilis; details: 25 °C, 50 mM HEPES pH 8.0, 100 mM KCl, 5 mM MgCl2, 0.2 mM D-3-IPM fixed, 25.0 °C, varied: cofactor
From the text: (§1) A340 NADH formation, steady state, Michaelis-Menten fit on B. subtilis IPMDH

[2] = substrate: CC(C)[C@H](C(=O)O)[C@@H](O)C(=O)O; format: biochemical, Bacillus subtilis; details: 40 °C, 50 mM HEPES pH 8.0, 100 mM KCl, 5 mM MgCl2, 5 mM NAD+ fixed, 40.0 °C
From the text: as §1

[3] = substrate: NC(=O)c1ccc[n+]([C@@H]2O[C@H](COP(=O)(O)OP(=O)(O)OC[C@H]3O[C@@H](n4cnc5c(N)ncnc54)[C@H](O)[C@@H]3O)[C@@H](O)[C@H]2O)c1; format: biochemical, Saccharomyces cerevisiae; details: 25 °C, 50 mM HEPES pH 8.0, 100 mM KCl, 5 mM MgCl2, 0.2 mM D-3-IPM fixed, 25.0 °C, varied: cofactor
From the text: (§2) A340 NADH formation, steady state, Michaelis-Menten fit on S. cerevisiae IPMDH

[4] = substrate: CC(C)[C@H](C(=O)O)[C@@H](O)C(=O)O; format: biochemical, Saccharomyces cerevisiae; details: 40 °C, 50 mM HEPES pH 8.0, 100 mM KCl, 5 mM MgCl2, 5 mM NAD+ fixed, 40.0 °C
From the text: as §2

[5] = substrate: NC(=O)c1ccc[n+]([C@@H]2O[C@H](COP(=O)(O)OP(=O)(O)OC[C@H]3O[C@@H](n4cnc5c(N)ncnc54)[C@H](O)[C@@H]3O)[C@@H](O)[C@H]2O)c1; format: biochemical, Thermus thermophilus; details: 25 °C, 50 mM HEPES pH 8.0, 100 mM KCl, 5 mM MgCl2, 0.2 mM D-3-IPM fixed, 25.0 °C, varied: cofactor
From the text: (§3) A340 NADH formation, steady state, Michaelis-Menten fit on T. thermophilus IPMDH

[6] = substrate: CC(C)[C@H](C(=O)O)[C@@H](O)C(=O)O; format: biochemical, Thermus thermophilus; details: 40 °C, 50 mM HEPES pH 8.0, 100 mM KCl, 5 mM MgCl2, 5 mM NAD+ fixed, 40.0 °C
From the text: as §3

B1: B. subtilis IPMDH (Bacillus subtilis subsp. subtilis str. 168) (protein)
chain: MKKRIALLPGDGIGPEVLESATDVLKSVAERFNHEFEFEYGLIGGAAIDEHHNPLPEETVAACKNADAILLGAVGGPKWDQNPSELRPEKGLLSIRKQLDLFANLRPVKVFESLSDASPLKKEYIDNVDFVIVRELTGGLYFGQPSKRYVNTEGEQEAVDTLFYKRTEIERVIREGFKMAAARKGKVTSVDKANVLESSRLWREVAEDVAQEFPDVKLEHMLVDNAAMQLIYAPNQFDVVVTENMFGDILSDEASMLTGSLGMLPSASLSSSGLHLFEPVHGSAPDIAGKGMANPFAAILSAAMLLRTSFGLEEEAKAVEDAVNKVLASGKRTRDLARSEEFSSTQAITEEVKAAIMSENTISNV
notes: recombinant from E. coli Rosetta2 (DE3), pET21c(+) NdeI-BamHI, purified by HiTrap-Q, HiTrap-Butyl and ResourceQ; no tag mentioned
- Km [1]: 110 ± 10 µM
- kcat [1]: 2.8 ± 0.1 s⁻¹
- Km [2]: 0.78 ± 0.11 µM
- kcat [2]: 9.4 ± 0.2 s⁻¹

B2: S. cerevisiae IPMDH (Saccharomyces cerevisiae S288C) (protein)
chain: MSAPKKIVVLPGDHVGQEITAEAIKVLKAISDVRSNVKFDFENHLIGGAAIDATGVPLPDEALEASKKADAVLLGAVGGPKWGTGSVRPEQGLLKIRKELQLYANLRPCNFASDSLLDLSPIKPQFAKGTDFVVVRELVGGIYFGKRKEDDGDGVAWDSEQYTVPEVQRITRMAAFMALQHEPPLPIWSLDKANVLASSRLWRKTVEETIKNEFPTLKVQHQLIDSAAMILVKNPTHLNGIIITSNMFGDIISDEASVIPGSLGLLPSASLASLPDKNTAFGLYEPCHGSAPDLPKNKVNPIATILSAAMMLKLSLNLPEEGKAIEDAVKKVLDAGIRTGDLGGSNSTTEVGDAVAEEVKKILA
notes: as for B1
- Km [3]: 130 ± 10 µM
- kcat [3]: 5.1 ± 0.1 s⁻¹
- Km [4]: 4.5 ± 0.7 µM
- kcat [4]: 20 ± 1 s⁻¹

B3: T. thermophilus IPMDH (Thermus thermophilus HB8) (protein)
chain: MKVAVLPGDGIGPEVTEAALKVLRALDEAEGLGLAYEVFPFGGAAIDAFGEPFPEPTRKGVEEAEAVLLGSVGGPKWDGLPRKIRPETGLLSLRKSQDLFANLRPAKVFPGLERLSPLKEEIARGVDVLIVRELTGGIYFGEPRGMSEAEAWNTERYSKPEVERVARVAFEAARKRRKHVVSVDKANVLEVGEFWRKTVEEVGRGYPDVALEHQYVDAMAMHLVRSPARFDVVVTGNIFGDILSDLASVLPGSLGLLPSASLGRGTPVFEPVHGSAPDIAGKGIANPTAAILSAAMMLEHAFGLVELARKVEDAVAKALLETPPPDLGGSAGTEAFTATVLRHLA
notes: extant thermophilic wild type; homodimer
- Km [5]: 2.2 ± 0.3 µM
- kcat [5]: 0.37 ± 0.01 s⁻¹
- Km [6]: 2.3 ± 0.8 µM
- kcat [6]: 2.4 ± 0.1 s⁻¹
